Drawing on the RNAGym collection of RNA variant scans (doi:10.7554/elife.90254), this text covers self-cleavage for 167 variants.

Sequences and labels used below:
B1: OR4K15 (parent)
chain: GUUAACGGUCAUAGGCCAUGGAAACUAGGAGCACCAUUUCGCUGCCAGUGAAGAAAUGAACAAAGAAAAUCUGGGCCAGGCAGGCAUCAAAAGAAAUAGUCUUGCGCUCAACCAGAAAGUCUGUAAUCAUUUUAAGGGUA

Variants of B1 are the subject of this series. In words: self-cleavage, relative activity (ratio to wild type); higher = more cleavage; in vitro, sequencing; the parent is a self-cleaving ribozyme.
U26C U130C: the self-cleavage was determined as 0.3. As to A24G U103A, the self-cleavage is 0.42. As for A24G U103C, the self-cleavage came to 0.32. The figure for A24G A94G is 1.47; for U26C U103A it is 0.24; for U26C U103C it is 0.69. U26C U100C: the self-cleavage was 1.45.

On to A23U A66G, for which the self-cleavage was 1.16. As to A23U A118G, the self-cleavage was 0.66. Regarding C25A A36G, the self-cleavage is 1.03. For the variant A24G A33G, the self-cleavage is 0.85. As for A24G A33U, the self-cleavage was 1.73. The figure for A27C A33U is 2.06. In the case of A24U A27U, the self-cleavage was 1.14.

With U26C A89G, the self-cleavage was 1.35.

With A23U A33U, the self-cleavage is 1.17. On to U26C U39A, for which the self-cleavage came to 1.13.

On to A23U U49C, for which the self-cleavage was 1.55.

For the variant A23U U49A, the self-cleavage was 1.2. Take A24C U70G: the self-cleavage was found to be 0.73. The figure for A24G G74A is 0.31. Consider A24G C109A, for which the self-cleavage was 0.3. For A24G C109U, the self-cleavage was 0.46.

For A23U A60G, the self-cleavage is 1.24. A24G U70A: the self-cleavage was 1.17. As to A23U A129U, the self-cleavage was 0.79.

As to A24U U57C, the self-cleavage was 0.73. In the case of A24C A69G it was 1.24; in that of A24G G65U, 1.3. The figure for U26C A92G is 1.45; for A24G U132C it is 1.31; for A24G U132A it is 0.48.

Turning to A24C A47G, the self-cleavage turned out to be 1.46. On to A23U A54U, for which the self-cleavage turned out to be 1.61. Regarding A23U A54G, the self-cleavage came to 1.59. Take A24C A64G: the self-cleavage was 1.74. As for U26A U39A, the self-cleavage stood at 0.92. Take U26A C105A: the self-cleavage was 0.02. Regarding A24C A33G, the self-cleavage turned out to be 1.14. For the variant A23U A117G, the self-cleavage was found to be 1.14.

With U26C G136A, the self-cleavage amounted to 2.02. The figure for A24C A66U is 1.03; for U26C A60G it is 1.61; for A24C A63G it is 1.94.

Consider U26C C77U, for which the self-cleavage is 1.77. In the case of A24G A116U, the self-cleavage is 0.46. In the case of C25G U108C it was 0.03; in that of C25U U87C, 1.11. For the variant A24G U124C, the self-cleavage turned out to be 0.73. In the case of A24G U124A it was 0.74. U26C U87C: the self-cleavage is 0.37.

For the variant U26C A69G, the self-cleavage was found to be 1.46. Consider A23U G136A, for which the self-cleavage came out at 0.85. For the variant A24G A89C, the self-cleavage amounted to 1.51.

Consider A24G A95G, for which the self-cleavage came to 1.71. Take A24G A126G: the self-cleavage stood at 0.83.

Turning to A27C A67U, the self-cleavage was determined as 1.29. On to A24U A118G, for which the self-cleavage came to 0.99.

On to U26C G44A, for which the self-cleavage was 1.07. A24G C34U: the self-cleavage is 1.69.

For the variant A23U A96G, the self-cleavage is 1.59. Turning to U26C A68G, the self-cleavage is 1.26.

With A24G G29U, the self-cleavage was determined as 1.2. In the case of A24G A67U it was 1.32; in that of C25U A63G, 0.37. As to U26C A56G, the self-cleavage amounted to 1.43. For the variant C25U U120A, the self-cleavage came out at 2.95. C25G A118G: the self-cleavage came out at 0.35.

Turning to A24U A66G, the self-cleavage came to 1.66.

A24G G58U: the self-cleavage came out at 1.92. For the variant A23U A140G, the self-cleavage is 1.38. In the case of A23U A140C it was 1.37; in that of C25U C109U, 0.48. Consider A24U A82G, for which the self-cleavage is 0.41. The figure for A24C U122C is 1.49; for A24C U133A it is 1.76. On to A24C A51U, for which the self-cleavage turned out to be 1.33. On to U26A U43C, for which the self-cleavage amounted to 1.45. In the case of U26A U72A it was 0.28; in that of A24G A51C, 0.87.

With C25U U127C, the self-cleavage turned out to be 0.57. For A23U U124C, the self-cleavage was determined as 1.64. Regarding U26C U131C, the self-cleavage was 1.04. Regarding A24U U26A, the self-cleavage is 1.57. With A24U U26C, the self-cleavage stood at 2.46. As for U26C U132A, the self-cleavage came out at 0.61. With A24G U72A, the self-cleavage amounted to 0.28. Turning to A24G U72G, the self-cleavage turned out to be 0.26. As for C25U A62G, the self-cleavage is 0.59. Turning to A24G A54G, the self-cleavage came to 1.12. U26A A54G: the self-cleavage came to 1.95. In the case of A23U U131C it was 1.02. Take A24G A114G: the self-cleavage was found to be 0.44.

Regarding A24G A114C, the self-cleavage is 0.05. The figure for A24C U87C is 1.44. Consider C25U U132C, for which the self-cleavage was found to be 1.36. As for A24C A91G, the self-cleavage was 1.24. Take C25A U122C: the self-cleavage worked out at 0.72. As to A24G A52G, the self-cleavage was found to be 1.44. As for A24G U26A, the self-cleavage came out at 0.98. A24G A125C: the self-cleavage is 0.4.

Consider A23U A47G, for which the self-cleavage was determined as 0.67. With A23U A47U, the self-cleavage is 1.04. For the variant C25U A86C, the self-cleavage was 0.72. For the variant A24C G123A, the self-cleavage was 1.91.

For the variant A24C A96G, the self-cleavage is 1.72. In the case of U26C U120C it was 0.85; in that of A23U U43C, 1.22; in that of A24G A64G, 1.01. For the variant A24C A114G, the self-cleavage turned out to be 0.97. Turning to A24G A68U, the self-cleavage is 0.87.

On to A24C A55G, for which the self-cleavage is 1.52. As for A24G A134G, the self-cleavage was 0.94. As for U26A U57G, the self-cleavage is 0.97. The figure for A23U U103C is 0.03; for A24C A118C it is 0.84; for U26G A66G it is 1.09.

Regarding A23U A51C, the self-cleavage was found to be 1.55. In the case of A24C A62C, the self-cleavage turned out to be 2.03. The figure for U26C A90G is 1.11. Consider A24C A98G, for which the self-cleavage is 0.56. Take A24U A98G: the self-cleavage was found to be 0.45.

As for A27C U87A, the self-cleavage worked out at 1.13. The figure for A24G C105A is 0.02; for A24G A96G it is 1.2. As to U26A A98G, the self-cleavage is 0.3. U26A A69G: the self-cleavage came out at 1.5. A24G U131C: the self-cleavage was 1.17.

As to A24G U131G, the self-cleavage turned out to be 1.61.

As to C25U A114G, the self-cleavage turned out to be 0.37. A24G A47G: the self-cleavage is 0.73. On to A27G A64G, for which the self-cleavage was determined as 1.27. In the case of U26C A82U it was 0.28; in that of C25U U72A, 0.28; in that of A24G G104U, 0.01. In the case of U26C U108C it was 0.01; in that of A24G G83A, 0.98. For the variant A24G A60U, the self-cleavage came to 1.08. A24C U130C: the self-cleavage was 0.42.

For the variant U26A A27G, the self-cleavage was 0.9. In the case of A23U U87A it was 1.36; in that of A23U U87C, 1.08; in that of A24C A59U, 1.57. For U26A G44C, the self-cleavage is 0.71. For the variant A24C A95U, the self-cleavage is 2.22. Take A27G A51G: the self-cleavage is 1.3. For the variant U26C U122C, the self-cleavage worked out at 0.7. For the variant U26A C34U, the self-cleavage came to 1.99.

Turning to A24U U87A, the self-cleavage came out at 1.8.

For A27C G75C, the self-cleavage is 0.12. With A24U A86G, the self-cleavage was 1.8. As for A23U C76A, the self-cleavage amounted to 0.23. As for U26C A134G, the self-cleavage is 1.05. For the variant U26C A36G, the self-cleavage amounted to 1.47. With A24U A33G, the self-cleavage was 1.14.

Turning to A23U G115U, the self-cleavage was 0.21. On to U26C A116G, for which the self-cleavage amounted to 1.14. As for A24G A90U, the self-cleavage was 1.65.

Regarding A24G A90C, the self-cleavage came to 0.33. A24G A82C: the self-cleavage was determined as 0.25. Turning to A24G A82G, the self-cleavage was found to be 0.67.

U26A A47G: the self-cleavage worked out at 0.94.

With A24U A116U, the self-cleavage turned out to be 0.51. For the variant A27C A116U, the self-cleavage was 0.23. In the case of U26C A55G, the self-cleavage turned out to be 0.31. C25U A47G: the self-cleavage amounted to 1.76. Turning to C25U A59G, the self-cleavage was 1.24.
